Our source for the protein stability index values is the supplement of paper PMC10567573.

First the molecules themselves.
B1: C1orf137 (parent)
chain: LPQETNLTLKVCKPQAPQKLDPTL
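Further: lentivirally expressed fusions sorted by FACS into six bins by GFP to DsRed ratio, PSI derived from sequencing read proportions per bin multiplied by bin number.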

Variants of B1 are the subject of the data set. Put plainly: protein stability index of a GFP-peptide fusion (GPS, HEK-293T) (PSI 1-6); higher = more stable. The conditions noted are these: c terminus: a fixed tail appended.
On to LPQETNLTLKVCKPQAPQKLDMTL [P22M], for which the protein stability index turned out to be 2.98.
Regarding LPQETNLTLKVCKPQAPQKLDRTL [P22R], the protein stability index was determined as 3.84.
On to LPQETNLTLKVCKPQAPQKLDSTL [P22S], for which the protein stability index stood at 2.87.
LPQETNLTLKVCKPQAPQKLDCTL [P22C]: the protein stability index was determined as 2.95.
As to LPQETNLTLKVCKPQAPQKLDDTL [P22D], the protein stability index was 4.38.
For the variant LPQETNLTLKVCKPQAPQKLDITL [P22I], the protein stability index was found to be 2.08.
Consider LPQETNLTLKVCKPQAPQKLDQTL [P22Q], for which the protein stability index worked out at 4.25.
On to LPQETNLTLKVCKPQAPQKLDGTL [P22G], for which the protein stability index worked out at 3.39.
With LPQETNLTLKVCKPQAPQKLDKTL [P22K], the protein stability index turned out to be 4.
For LPQETNLTLKVCKPQAPQKLDVTL [P22V], the protein stability index came out at 2.87.
For the variant LPQETNLTLKVCKPQAPQKLDHTL [P22H], the protein stability index amounted to 3.13.
Regarding LPQETNLTLKVCKPQAPQKLDYTL [P22Y], the protein stability index was 3.06.
As for LPQETNLTLKVCKPQAPQKLDWTL [P22W], the protein stability index was found to be 2.83.
For LPQETNLTLKVCKPQAPQKLDLTL [P22L], the protein stability index was found to be 2.93.
For the variant LPQETNLTLKVCKPQAPQKLDFTL [P22F], the protein stability index stood at 2.35.
In the case of LPQETNLTLKVCKPQAPQKLDTTL [P22T], the protein stability index amounted to 3.54.
Regarding LPQETNLTLKVCKPQAPQKLDETL [P22E], the protein stability index was 4.13.
Take LPQETNLTLKVCKPQAPQKLDATL [P22A]: the protein stability index was 3.16.
Consider LPQETNLTLKVCYPQAPQKLDPTL [K13Y], for which the protein stability index was determined as 3.5.
Consider LPQETNLTLKVCKPQAPDKLDPTL [Q18D], for which the protein stability index came to 4.59.
The same measure for LPQETNLTLKVCKPQAPHKLDPTL [Q18H]: 3.69; for LPQETNLTLKVCKPQAPNKLDPTL [Q18N]: 3.52; for LPQETNLTLKVCKPQAPIKLDPTL [Q18I]: 3.92.
As for LPQETNLTLKVCKPQAPRKLDPTL [Q18R], the protein stability index turned out to be 3.8.
With LPQETNLTLKVCKPQAPGKLDPTL [Q18G], the protein stability index amounted to 3.59.
LPQETNLTLKVCKPQAPTKLDPTL [Q18T]: the protein stability index stood at 3.82.
The same measure for LPQETNLTLKVCKPQAPKKLDPTL [Q18K]: 3.97.
Take LPQETNLTLKVCKPQAPCKLDPTL [Q18C]: the protein stability index was determined as 3.79.
As to LPQETNLTLKVCKPQAPMKLDPTL [Q18M], the protein stability index was 3.28.
Consider LPQETNLTLKVCKPQAPSKLDPTL [Q18S], for which the protein stability index came out at 3.58.
Take LPQETNLTLKVCKPQAPFKLDPTL [Q18F]: the protein stability index worked out at 2.39.
As for LPQETNLTLKVCKPQAPAKLDPTL [Q18A], the protein stability index came out at 4.65.
With LPQETNLTLKVCKPQAPLKLDPTL [Q18L], the protein stability index was 3.31.
On to LPQETNLTLKVCKPQAPYKLDPTL [Q18Y], for which the protein stability index amounted to 3.13.
On to LPQETNLTLKVCKPQAPEKLDPTL [Q18E], for which the protein stability index is 3.23.
In the case of LPQETNLTLKVCKPQAPPKLDPTL [Q18P], the protein stability index stood at 3.75.
Regarding LPQETNLTLKVCKPQAPVKLDPTL [Q18V], the protein stability index is 3.56.
As for LPQETNLTLKVCKCQAPQKLDPTL [P14C], the protein stability index turned out to be 3.02.
For the variant LPQETNLTLKVCKGQAPQKLDPTL [P14G], the protein stability index turned out to be 4.55.
For the variant LPQETNLTLKVCKRQAPQKLDPTL [P14R], the protein stability index was found to be 4.27.
Next, LPQETNLTLKVCKDQAPQKLDPTL [P14D]: 4.76; LPQETNLTLKVCKAQAPQKLDPTL [P14A]: 3.59.
As for LPQETNLTLKVCKTQAPQKLDPTL [P14T], the protein stability index was found to be 4.16.
Regarding LPQETNLTLKVCKEQAPQKLDPTL [P14E], the protein stability index was determined as 4.71.
For the variant LPQETNLTLKVCKLQAPQKLDPTL [P14L], the protein stability index came to 2.81.
The same measure for LPQETNLTLKVCKMQAPQKLDPTL [P14M]: 3.08.
On to LPQETNLTLKVCKNQAPQKLDPTL [P14N], for which the protein stability index came out at 4.72.
For LPQETNLTLKVCKQQAPQKLDPTL [P14Q], the protein stability index was 4.41.
As for LPQETNLTLKVCKWQAPQKLDPTL [P14W], the protein stability index stood at 3.47.
On to LPQETNLTLKVCKYQAPQKLDPTL [P14Y], for which the protein stability index came out at 3.37.
LPQETNLTLKVCKSQAPQKLDPTL [P14S]: the protein stability index was determined as 4.27.
As for LPQETNLTLKVCKVQAPQKLDPTL [P14V], the protein stability index is 3.55.
As for LPQETNLTLKVCKKQAPQKLDPTL [P14K], the protein stability index came to 4.1.
Consider LPQETNLTLKVCKIQAPQKLDPTL [P14I], for which the protein stability index is 2.76.
With LPQETNLTLKVCKHQAPQKLDPTL [P14H], the protein stability index worked out at 4.07.
Next, LPQETNLTLKVCKFQAPQKLDPTL [P14F]: 2.71; LPQETNLTLKVCKPQAPQKVDPTL [L20V]: 4.03; LPQETNLTLKVCKPQAPQKCDPTL [L20C]: 4.18.
As to LPQETNLTLKVCKPQAPQKFDPTL [L20F], the protein stability index was 3.31.
Take LPQETNLTLKVCKPQAPQKMDPTL [L20M]: the protein stability index was determined as 4.13.
In the case of LPQETNLTLKVCKPQAPQKIDPTL [L20I], the protein stability index stood at 3.42.
LPQETNLTLKVCKPQAPQKGDPTL [L20G]: the protein stability index was determined as 4.91.
With LPQETNLTLKVCKPQAPQKADPTL [L20A], the protein stability index came out at 4.75.
LPQETNLTLKVCKPQAPQKPDPTL [L20P]: the protein stability index is 4.48.
Consider LPQETNLTLKVCKPQAPQKKDPTL [L20K], for which the protein stability index amounted to 4.9.
On to LPQETNLTLKVCKPQAPQKDDPTL [L20D], for which the protein stability index stood at 4.98.
Regarding LPQETNLTLKVCKPQAPQKEDPTL [L20E], the protein stability index turned out to be 5.09.
For LPQETNLTLKVCKPQAPQKYDPTL [L20Y], the protein stability index came out at 4.46.
LPQETNLTLKVCKPQAPQKNDPTL [L20N]: the protein stability index is 4.29.
For the variant LPQETNLTLKVCKPQAPQKSDPTL [L20S], the protein stability index came to 4.34.
Regarding LPQETNLTLKVCKPQAPQKTDPTL [L20T], the protein stability index came to 4.5.
Take LPQETNLTLKVCKPQAPQKQDPTL [L20Q]: the protein stability index was 4.47.
As to LPQETNLTLKVCKPQAPQKWDPTL [L20W], the protein stability index was found to be 3.51.
In the case of LPQETNLTLKVCKPQAPQKHDPTL [L20H], the protein stability index was 4.43.
The same measure for LPQETNLTLKVCKPQAPQKRDPTL [L20R]: 4.42; for LPQETNLTLKVCKPQLPQKLDPTL [A16L]: 3.69.
Turning to LPQETNLTLKVCKPQEPQKLDPTL [A16E], the protein stability index is 4.45.
Regarding LPQETNLTLKVCKPQNPQKLDPTL [A16N], the protein stability index was found to be 4.04.
Next, LPQETNLTLKVCKPQCPQKLDPTL [A16C]: 3.6; LPQETNLTLKVCKPQPPQKLDPTL [A16P]: 3.62.
Regarding LPQETNLTLKVCKPQWPQKLDPTL [A16W], the protein stability index is 2.02.
Turning to LPQETNLTLKVCKPQSPQKLDPTL [A16S], the protein stability index turned out to be 4.02.
Next, LPQETNLTLKVCKPQYPQKLDPTL [A16Y]: 3.38; LPQETNLTLKVCKPQTPQKLDPTL [A16T]: 4.07.
As for LPQETNLTLKVCKPQQPQKLDPTL [A16Q], the protein stability index stood at 3.96.
The same measure for LPQETNLTLKVCKPQIPQKLDPTL [A16I]: 3.56; for LPQETNLTLKVCKPQGPQKLDPTL [A16G]: 3.98.
Turning to LPQETNLTLKVCKPQHPQKLDPTL [A16H], the protein stability index was found to be 4.14.
Regarding LPQETNLTLKVCKPQVPQKLDPTL [A16V], the protein stability index came to 3.94.
The same measure for LPQETNLTLKVCKPQMPQKLDPTL [A16M]: 3.54; for LPQETNLTLKVCKPQRPQKLDPTL [A16R]: 3.58; for LPQETNLTLKVCKPQKPQKLDPTL [A16K]: 4.15.
Next, LPQETNLTLKVCKPQFPQKLDPTL [A16F]: 2.92; LPQETNLTLKVCKPQDPQKLDPTL [A16D]: 4.41.
